# Assay results taken from article PMC6585436 (Chemistry & biology, 2015).
# Several values for one entry are separate records, joined by “and”; a condition that tells them apart may be missing. Equal entries are not always repeated. Where two headings read alike, the source gives them in different places.
# How the values were obtained:
# Experiment in all cases: native MS
# [1] = target: N-His MtMscL (pet15b-10xHis-Thrombin-MtMscL-PG) (Mycobacterium tuberculosis) (UniProt A5U127)
# [2] = target: N-His MtMscL (pet15b-10xHis-Thrombin-MtMscL-PG) (Mycobacterium tuberculosis) (UniProt A5U127); remark: listed apart in the source
# [3] = target: AfMscL C-GFP (pet15b-AfMscL-TEV-GFP-6xHis) (Acidithiobacillus ferrooxidans)
# [4] = target: the molecule itself
# [5] = target: the molecule itself; remark: listed apart in the source
# [6] = target: the molecule itself; remark: listed apart in the source
# [7] = target: the molecule itself; remark: listed apart in the source
# [8] = target: the molecule itself; remark: listed apart in the source
molecule,measurement,setting,value
N-His MtMscL (pet15b-10xHis-Thrombin-MtMscL-PG) (from UniProt A5U127 1-151) (natural protein),relative abundance of pentamer,[1],38%
same,relative abundance of tetramer,[1],63%
same,stoichiometry N,[1],4
same,stoichiometry N,[2],5
AfMscL C-GFP (pet15b-AfMscL-TEV-GFP-6xHis) (natural protein),stoichiometry N,[3],5
SaMscL CΔ25 C-GFP (pet15b-SaMscL CΔ(96–120)-S-TEV-GFP-6xHis) (domain or fragment) MLKEFKEFALKGNVLDLAIAVVMGAAFNKIISSLVENIIMPLIGKIFGSVDFAKEWSFWGIKYGLFIQSVIDFIIIAFALFIFVKIANTLMKKEE,stoichiometry N,[4],5
same,stoichiometry N,[5],4
"SaMscL C-GFP (pet15b-SaMscL-S-TEV-GFP-6xHis) (natural protein, Staphylococcus aureus, UniProt P68805 1-120, looked up) MLKEFKEFALKGNVLDLAIAVVMGAAFNKIISSLVENIIMPLIGKIFGSVDFAKEWSFWGIKYGLFIQSVIDFIIIAFALFIFVKIANTLMKKEEAEEEAVVEENVVLLTEIRDLLREKK",stoichiometry N,[6],4
same,stoichiometry N,[7],5
"Full-length SaMscL, cleaved of its C-terminal GFP tag (natural protein, Staphylococcus aureus, UniProt P68805 1-120, looked up) MLKEFKEFALKGNVLDLAIAVVMGAAFNKIISSLVENIIMPLIGKIFGSVDFAKEWSFWGIKYGLFIQSVIDFIIIAFALFIFVKIANTLMKKEEAEEEAVVEENVVLLTEIRDLLREKK",stoichiometry N,[8],5 and 4
"N-His SaMscL (pet15b-10xHis-Thrombin-SaMscL) (natural protein, Staphylococcus aureus, UniProt P68805 1-120, looked up) MLKEFKEFALKGNVLDLAIAVVMGAAFNKIISSLVENIIMPLIGKIFGSVDFAKEWSFWGIKYGLFIQSVIDFIIIAFALFIFVKIANTLMKKEEAEEEAVVEENVVLLTEIRDLLREKK",stoichiometry N,[7],4 and 3 and 2
same,stoichiometry N,[5],5
